The target in data set [1] is T1, eIF4A1 (human, UniProt P60842 1-406). The data set can be described thus: EMSA; silvestrol; multimerisation observed; 20 mM HEPES/KOH pH 7.5, 100 mM KCl, 1 mM TCEP, 1% DMSO, 2 mM AMPPNP/MgCl2, 25 C, 60 min; EMSA gels 6-7% acrylamide-TB, 0.5x TB. As to conditions: protein: recombinant; tags: N-terminal 6xHis-SUMO, cleaved; label: FAM. For orientation: Mobility shift assays separate free from complexed probe on a gel.

In data set [2] the target is T1, eIF4A1. The data set can be described thus: EMSA; silvestrol, MgCl2, no ATP; fully bound with and without scavenger AG-RNA; 20 mM HEPES/KOH pH 7.5, 100 mM KCl, 1 mM TCEP, 1% DMSO, 2 mM AMPPNP/MgCl2, 25 C, 60 min; EMSA gels 6-7% acrylamide-TB, 0.5x TB. As to conditions: protein: recombinant; tags: N-terminal 6xHis-SUMO, cleaved; label: EMSA: 5' Dy780 / 5' Dy680; FRET: 5' Cy3 / 5' Cy5; 5' overhang 20 nt.

Data set [3] has as its target T1, eIF4A1. The data set can be described thus: fluorescence anisotropy; 2 mM AMPPNP/MgCl2; affinity comparable to AG-RNA, Kd in figure only; 20 mM HEPES/KOH pH 7.5, 100 mM KCl, 1 mM TCEP, 1% DMSO, 2 mM AMPPNP/MgCl2, 25 C, 60 min; EMSA gels 6-7% acrylamide-TB, 0.5x TB. As to conditions: protein: recombinant; tags: N-terminal 6xHis-SUMO, cleaved; label: FAM or 5' Dy780. A general note: In fluorescence polarisation assays a small probe gives low polarisation when free and higher when bound to something large.

T1 sequence (P60842 whole entry): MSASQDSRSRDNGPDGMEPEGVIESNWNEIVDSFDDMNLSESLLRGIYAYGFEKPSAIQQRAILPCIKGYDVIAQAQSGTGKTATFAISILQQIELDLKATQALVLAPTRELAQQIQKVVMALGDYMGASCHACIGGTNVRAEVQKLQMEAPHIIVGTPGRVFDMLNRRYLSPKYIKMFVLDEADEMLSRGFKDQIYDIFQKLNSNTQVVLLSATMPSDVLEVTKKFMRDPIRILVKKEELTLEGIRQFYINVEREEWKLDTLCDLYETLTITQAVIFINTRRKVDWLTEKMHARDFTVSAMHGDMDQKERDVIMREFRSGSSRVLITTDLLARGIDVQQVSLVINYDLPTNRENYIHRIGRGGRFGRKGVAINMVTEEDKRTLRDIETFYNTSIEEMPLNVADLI

B1: 10 nt AG-RNA (ssRNA)
RNA: AGAGAGAGAG
Regarding B1, the binding result with eIF4A1 [1] is given as “binds”.

B2: AG-overhang 24 bp substrate (EMSA/FRET loading + reporter) (dsRNA)
RNA 1: AGAGAGAGAGAGAGAGAGAGGAAAAAAUUAAAAAAUUAAAAAAC
RNA 2: GUUUUUUAAUUUUUUAAUUUUUUC
Regarding B2, in the data set with eIF4A1 [2], the binding result is “binds”.

B3: CAA-RNA (20 nt) (ssRNA)
RNA: CAACAACAACAACAACAACA
Turning to B3, the binding result with eIF4A1 [3] was “binds”.

For the origin of these results see publication PMC9976904, “eIF4A1-dependent mRNAs employ purine-rich 5’UTR sequences to activate localised eIF4A1-unwinding through eIF4A1-multimerisation to facilitate translation”.
